Assay results published in PMC5503513, “Tandem hnRNP A1 RNA recognition motifs act in concert to repress the splicing of survival motor neuron exon 7”.

B1: UUAGGUC (ssRNA)
RNA: UUAGGUC
B2: UUAGUU (ssRNA)
RNA: UUAGUU

How the values were obtained:
[1] = target: T1, hnRNP A1 RRM1 F23A (UniProt P09651 2-97, F23A); experiment: ITC; 10 mM sodium phosphate pH 6.5, 10 mM 2-mercaptoethanol, no added salt, 30 C; RNA 5-10 uM in the cell; 1:1 fit; details: one extra N-terminal Ala in PDB 5MPG (left out)
[2] = target: hnRNP A1 RRM1 R55A (UniProt P09651 2-97, R55A); experiment: as above; details: one extra N-terminal Ala in PDB 5MPG (left out)
Chain of hnRNP A1 RRM1 R55A (P09651 2-97 R55A): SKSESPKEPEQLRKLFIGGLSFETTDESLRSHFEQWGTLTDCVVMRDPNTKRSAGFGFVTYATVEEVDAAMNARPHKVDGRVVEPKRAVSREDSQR

[3] = target: T2, hnRNP A1 RRM1 D42A (UniProt P09651 2-97, D42A); experiment: as above; details: one extra N-terminal Ala in PDB 5MPG (left out)
T2 sequence (P09651 2-97 D42A): as the sequence (P09651 2-97 R55A) above, with D41A, A54R counted along it

[4] = target: hnRNP A1 UP1 r1R2 (Homo sapiens, UniProt P09651 2-196, F17A;F59A); experiment: as above; details: extra N-terminal Gly-Gly in PDB 2LYV (left out)
Chain of hnRNP A1 UP1 r1R2 (P09651 2-196 F17A/F59A): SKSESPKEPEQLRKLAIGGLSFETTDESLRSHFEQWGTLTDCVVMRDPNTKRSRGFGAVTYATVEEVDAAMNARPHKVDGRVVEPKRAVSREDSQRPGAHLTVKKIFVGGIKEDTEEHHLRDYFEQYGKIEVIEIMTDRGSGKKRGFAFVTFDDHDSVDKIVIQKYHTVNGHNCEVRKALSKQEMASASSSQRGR

[5] = target: T3, hnRNP A1 RRM1 R92A (UniProt P09651 2-97, R92A); experiment: as above; details: one extra N-terminal Ala in PDB 5MPG (left out)
T3 sequence (P09651 2-97 R92A): as the sequence (P09651 2-97 R55A) above, with A54R, R91A counted along it

[6] = target: hnRNP A1 UP1 R1r2 (Homo sapiens, UniProt P09651 2-196, F108A;F150A); experiment: as above; details: extra N-terminal Gly-Gly in PDB 2LYV (left out)
Chain of hnRNP A1 UP1 R1r2 (P09651 2-196 F108A/F150A): as the sequence (P09651 2-196 F17A/F59A) above, with A16F, A58F, F107A, F149A counted along it

[7] = target: T4, hnRNP A1 RRM2 R140A (UniProt P09651 95-196, R140A); experiment: as above; details: none in PDB 5MPL
T4 sequence (P09651 95-196 R140A): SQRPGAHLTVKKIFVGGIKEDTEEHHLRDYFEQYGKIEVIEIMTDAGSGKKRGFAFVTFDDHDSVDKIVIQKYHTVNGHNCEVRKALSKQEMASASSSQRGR

[8] = target: T1, hnRNP A1 RRM1 F23A; experiment: ITC; ITC: 10 mM NaPi pH 6.5, 10 mM 2-mercaptoethanol, 30 C, protein titrated into RNA; NMR: 10 mM NaPi pH 6.5, 1 mM DTT (303 K stated for UP1-R140A:ISS-N1-u25g); details: protein: recombinant; single strand
[9] = target: hnRNP A1 RRM2 (UniProt P09651 95-196); experiment: as above; details: protein: recombinant; single strand
Chain of hnRNP A1 RRM2 (P09651 95-196): as the sequence (P09651 95-196 R140A) above, with A46R counted along it

[10] = target: T5, hnRNP A1 RRM2 E176Q (UniProt P09651 95-196, E176Q); experiment: as above; details: protein: recombinant; single strand
T5 sequence (P09651 95-196 E176Q): as the sequence (P09651 95-196 R140A) above, with A46R, E82Q counted along it

[11] = target: UP1 r1R2 (UniProt P09651 1-196, F17A;F59A); experiment: as above; details: protein: recombinant; single strand
Chain of UP1 r1R2 (P09651 1-196 F17A/F59A): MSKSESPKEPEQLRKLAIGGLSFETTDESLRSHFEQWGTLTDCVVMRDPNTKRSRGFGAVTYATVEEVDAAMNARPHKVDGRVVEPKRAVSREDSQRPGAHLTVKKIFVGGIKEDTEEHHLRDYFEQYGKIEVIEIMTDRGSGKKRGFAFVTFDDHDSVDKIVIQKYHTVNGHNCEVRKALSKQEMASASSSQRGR

[12] = target: T2, hnRNP A1 RRM1 D42A; experiment: as above; details: protein: recombinant; single strand
[13] = target: UP1 R1r2 (UniProt P09651 1-196, F108A;F150A); experiment: as above; details: protein: recombinant; single strand
Chain of UP1 R1r2 (P09651 1-196 F108A/F150A): as the sequence (P09651 1-196 F17A/F59A) above, with A17F, A59F, F108A, F150A counted along it

[14] = target: T4, hnRNP A1 RRM2 R140A; experiment: as above; details: protein: recombinant; single strand
[15] = target: T6, hnRNP A1 RRM1 (UniProt P09651 2-97); experiment: as above; details: protein: recombinant; single strand
T6 sequence (P09651 2-97): as the sequence (P09651 2-97 R55A) above, with A54R counted along it

[16] = target: T3, hnRNP A1 RRM1 R92A; experiment: ITC; range, no saturation; ITC: 10 mM NaPi pH 6.5, 10 mM 2-mercaptoethanol, 30 C, protein titrated into RNA; NMR: 10 mM NaPi pH 6.5, 1 mM DTT (303 K stated for UP1-R140A:ISS-N1-u25g); details: protein: recombinant; single strand
[17] = target: T6, hnRNP A1 RRM1; experiment: ITC; first listed measurement; ITC: 10 mM NaPi pH 6.5, 10 mM 2-mercaptoethanol, 30 C, protein titrated into RNA; NMR: 10 mM NaPi pH 6.5, 1 mM DTT (303 K stated for UP1-R140A:ISS-N1-u25g); details: protein: recombinant; single strand
[18] = target: T1, hnRNP A1 RRM1 F23A; experiment: ITC; second listed measurement; ITC: 10 mM NaPi pH 6.5, 10 mM 2-mercaptoethanol, 30 C, protein titrated into RNA; NMR: 10 mM NaPi pH 6.5, 1 mM DTT (303 K stated for UP1-R140A:ISS-N1-u25g); details: protein: recombinant; single strand
[19] = target: T5, hnRNP A1 RRM2 E176Q; experiment: ITC; 10 mM sodium phosphate pH 6.5, 10 mM 2-mercaptoethanol, no added salt, 30 C; RNA 5-10 uM in the cell; 1:1 fit; details: none in PDB 5MPL
[20] = target: T7, hnRNP A1 RRM2 M186A (UniProt P09651 95-196, M186A); experiment: as above; details: none in PDB 5MPL
T7 sequence (P09651 95-196 M186A): as the sequence (P09651 95-196 R140A) above, with A46R, M92A counted along it

[21] = target: T6, hnRNP A1 RRM1; experiment: as above; details: one extra N-terminal Ala in PDB 5MPG (left out)
[22] = target: T7, hnRNP A1 RRM2 M186A; experiment: ITC; ITC: 10 mM NaPi pH 6.5, 10 mM 2-mercaptoethanol, 30 C, protein titrated into RNA; NMR: 10 mM NaPi pH 6.5, 1 mM DTT (303 K stated for UP1-R140A:ISS-N1-u25g); details: protein: recombinant; single strand
[23] = target: hnRNP A1 RRM2 Y167F (UniProt P09651 95-196, Y167F); experiment: as above; details: protein: recombinant; single strand
Chain of hnRNP A1 RRM2 Y167F (P09651 95-196 Y167F): as the sequence (P09651 95-196 R140A) above, with A46R, Y73F counted along it

[24] = target: T2, hnRNP A1 RRM1 D42A; experiment: ITC; range, no saturation; ITC: 10 mM NaPi pH 6.5, 10 mM 2-mercaptoethanol, 30 C, protein titrated into RNA; NMR: 10 mM NaPi pH 6.5, 1 mM DTT (303 K stated for UP1-R140A:ISS-N1-u25g); details: protein: recombinant; single strand
[25] = target: T6, hnRNP A1 RRM1; experiment: as above; details: protein: recombinant; single strand

T1 sequence (P09651 2-97 F23A): as the sequence (P09651 2-97 R55A) above, with F22A, A54R counted along it

Binder	Kd [3] [nM]	Kd [4] [nM]	Kd [5] [nM]	Kd [6] [nM]	Kd [7] [nM]	Kd [9] [nM]	Kd [10] [nM]	Kd [11] [nM]	Kd [14] [nM]	further results
B1	787 ± 42	56.2 ± 4	~2850	45 ± 2	195 ± 12	64 ± 8	116 ± 39	56 ± 4	195 ± 12	Kd [1]: 209 ± 13 nM; Kd [2]: > 10000 nM; Kd [8]: 225 ± 13 nM; Kd [12]: 787 ± 42 nM; Kd [13]: 47 ± 2 nM; Kd [15]: 288 ± 16 nM; Kd [16]: ~2240 nM; Kd [17]: 292 ± 17 nM; Kd [18]: 193 ± 11 nM
B2	~2690	142 ± 9	> 10000	105 ± 8	433 ± 26	125 ± 9	286 ± 12	142 ± 9	433 ± 26	Kd [19]: 286 ± 12 nM; Kd [20]: 253 ± 15 nM; Kd [21]: ~5990 nM; Kd [22]: 253 ± 15 nM; Kd [23]: 118 ± 9 nM; Kd [24]: ~2240 nM; Kd [25]: ~5200 nM
